US20220378931A1 (Eli Lilly, published 2022)

Columns and labels:
[1] = target: T1, human insulin receptor isoform A with C-terminal C9 tag (human, UniProt P06213 28-1382); test: 125I-insulin competition SPA, hIR-A membranes, 0.1% HSA
T1 construct: membranes of stably transfected HEK293 cells; also called hIR-A; human IR-A
Protocol: (§1) The assays are performed with a SPA method using polyvinyltoluene (PVT) wheat germ agglutinin-coupled SPA beads (Perkin Elmer). Assay buffer contains 50 mM Tris-HCl, pH 7.5, 150 mM NaCl and either A) 0.1% w/v fatty-acid free BSA; B) 0.1% w/v fatty-acid free human serum albumin (HSA); C) 0.1% w/v rat serum albumin (RSA); or D) 0.001% Nonidet P-40 Substitute (NP-40, Roche Diagnostics). Ten-point concentration response curves using three-fold serial dilutions of test samples or controls are prepared in Assay Buffer using a Freedom/Evo robot (Tecan).
(§2) Percent specific inhibition (y-axis) is plotted versus the log concentration of compound (x-axis). […] Reported Ki values are shown as the geometric mean with the standard error (Delta Method Standard Error) and the number of independent replicate determinations used to calculate the geometric mean indicated by n.

[2] = target: T1, human insulin receptor isoform A with …; test: 125I-insulin competition SPA, hIR-A membranes, 0.1% BSA
[3] = target: T2, human insulin receptor isoform B with C-terminal C9 tag (human, UniProt P06213 28-1382); test: 125I-insulin competition SPA, hIR-B membranes, 0.1% BSA
T2 construct: membranes of stably transfected HEK293 cells; also called hIR-B; human IR-B
Protocol: as §1, §2

[4] = target: T3, cynomolgus monkey serum albumin (cynomolgus monkey, UniProt A2V9Z4 25-608); test: SPR (Biacore 8K), albumin immobilised, 25 C, 1:1 kinetics
T3 construct: bought protein, amine-coupled to a CM5 chip; also called Cyno SA
Protocol: (§3) Immobilization of serum albumin to a Series S Sensor Chip CM5 surface is performed according to the manufacturer's instructions (Amine Coupling Kit BR-1000-50). Briefly, carboxyl groups on the sensor chip surfaces (flow cell 1 and 2) are activated by injecting 70 μL of a mixture containing 75 mg/ml EDC and 11.5 mg/ml NHS at 10 μL/min. Human, cynomolgus monkey, mouse, rat, pig, dog, cow and rabbit serum albumin are diluted in 10 mM NaOAc pH 4.0 (BR-1003-49) at 1, 1, 3, 1, 1, 1, 1 and 1 μg/mL and then injected over the activated chip surfaces (flow cell 2, […]) at 10 μL/min for 90 sec (human, mouse, rat, pig and cow serum albumin are obtained from Sigma Aldrich (St. Louis, Mo.); cynomolgus monkey serum albumin is obtained from Holzel Diagnostika (Cologne, Germany); dog serum albumin is obtained from Molecular Innovations (Novi, Mich.); and rabbit serum albumin is obtained from Fitzgerald Industries International (Acton, Mass.)). […] Excess reactive groups on the surfaces (flow cell 1 and 2) are deactivated by injecting 70 μL of 1 M ETA HCl—NaOH pH 8.5 at 10 μL/min.
(§4) 150 μL of sample is individually injecting sequentially across the immobilized serum albumins surface and then dissociates for 600 sec at 50 μL/min flow rate at 25° C. The surface is regenerated by injecting 10 mM glycine-HCl pH 1.5 (BR-1003-54) at 50 μL/min for 100 sec. The resulting sensorgrams are analyzed using Biacore 8K Insight Evaluation Software (version 2.0.15.12933) 1:1 binding kinetics or steady-state affinity model fitting to calculate the binding kinetic parameter association rate (ka), dissociation rate (kd), and equilibrium dissociation constant (KD)

mouse serum albumin = target: T4, mouse serum albumin (mouse, UniProt P07724 25-608); test: as above
T4 construct: bought protein, amine-coupled to a CM5 chip; also called Mouse SA
Protocol: as §3, §4

dog serum albumin = target: T5, dog serum albumin (dog, UniProt P49822 25-608); test: as above
T5 construct: bought protein, amine-coupled to a CM5 chip; also called Dog SA
Protocol: as §3, §4

pig serum albumin = target: T6, pig serum albumin (pig, UniProt P08835 25-607); test: as above
T6 construct: bought protein, amine-coupled to a CM5 chip; also called Pig SA
Protocol: as §3, §4

rat serum albumin = target: T7, rat serum albumin (rat, UniProt P02770 25-608); test: as above
T7 construct: bought protein, amine-coupled to a CM5 chip; also called Rat SA; RSA
Protocol: as §3, §4

human serum albumin = target: T8, human serum albumin (human, UniProt P02768 25-609); test: as above
T8 construct: bought protein, amine-coupled to a CM5 chip; also called Human SA; HSA
Protocol: as §3, §4

[5] = target: T2, human insulin receptor isoform B with …; test: 125I-insulin competition SPA, hIR-B membranes, 0.001% NP-40
Protocol: as §1, §2

[6] = target: T1, human insulin receptor isoform A with …; test: 125I-insulin competition SPA, hIR-A membranes, 0.001% NP-40
[7] = target: T2, human insulin receptor isoform B with …; test: 125I-insulin competition SPA, hIR-B membranes, 0.1% HSA
Protocol: as §1, §2

cow serum albumin = target: T9, cow serum albumin (cow, UniProt P02769 25-607); test: SPR (Biacore 8K), albumin immobilised, 25 C, steady-state affinity
T9 construct: bought protein, amine-coupled to a CM5 chip; also called Cow SA; Bovine SA

rabbit serum albumin = target: T10, rabbit serum albumin (rabbit, UniProt P49065 25-608); test: SPR (Biacore 8K), albumin immobilised, 25 C
T10 construct: bought protein, amine-coupled to a CM5 chip; also called Rabbit SA
Protocol: as §3, §4

Ki [1]: 125 nM
Ki [2]: 630 nM
Ki [3]: 790 nM
Kd [4]: 3.5 nM
koff [4]: 0.00079 s⁻¹
kon [4]: 230000 M⁻¹ s⁻¹
Kd (mouse serum albumin): 42 nM
koff (mouse serum albumin): 0.0092 s⁻¹
kon (mouse serum albumin): 220000 M⁻¹ s⁻¹
Kd (dog serum albumin): 16 nM
koff (dog serum albumin): 0.0033 s⁻¹
kon (dog serum albumin): 200000 M⁻¹ s⁻¹
Kd (pig serum albumin): 90 nM
koff (pig serum albumin): 0.011 s⁻¹
kon (pig serum albumin): 130000 M⁻¹ s⁻¹
Kd (rat serum albumin): 34 nM
koff (rat serum albumin): 0.0066 s⁻¹
kon (rat serum albumin): 200000 M⁻¹ s⁻¹
Kd (human serum albumin): 0.32 nM
koff (human serum albumin): 8.4e-05 s⁻¹
kon (human serum albumin): 260000 M⁻¹ s⁻¹
Ki [5]: 641 nM
Ki [6]: 174 nM
Ki [7]: 279 nM
Kd (cow serum albumin): 390 nM
binding result (rabbit serum albumin): no binding (tested: up to 1000 nM)
B1: INS Analog 25 (other)
chain: FVSQHLCGSHLVEALRLVCGERGFFYTPKTGGGGGGGIVEQCCTSICSLYQLENYCGGGGGQGGGGQGGGGQGGGGQGGGGQEVQLLESGGGLVQPGGSLRLSCAASGRYIDETAVAWFRQAPGKEREFVAGIGGGVDITYYADSVKGRFTISRDNSKNTLYLQMNSLRPEDTAVYYCAARPGRPLITSKVADLYPYWGQGTLVTVSSPP
notes: single-chain insulin B-L2-A-L1-VHH fusion; also called Ex. 25
